The results in this text go back to article PMC4770226.

The target of one series is Ku70-5A/Ku80 heterodimer (human, UniProt P12956;P13010 1-609;1-732, T305A;S306A;T307A;S314A;T316A;Ku70:). In words: pull-down.
Series [1] addresses Ku70/Ku80 heterodimer, wild-type (human, UniProt P12956;P13010 1-609;1-732). In words: pull-down.

Chain of Ku70-5A/Ku80 heterodimer (P12956 whole entry T305A/S306A/T307A/S314A/T316A, chain 1 of 2): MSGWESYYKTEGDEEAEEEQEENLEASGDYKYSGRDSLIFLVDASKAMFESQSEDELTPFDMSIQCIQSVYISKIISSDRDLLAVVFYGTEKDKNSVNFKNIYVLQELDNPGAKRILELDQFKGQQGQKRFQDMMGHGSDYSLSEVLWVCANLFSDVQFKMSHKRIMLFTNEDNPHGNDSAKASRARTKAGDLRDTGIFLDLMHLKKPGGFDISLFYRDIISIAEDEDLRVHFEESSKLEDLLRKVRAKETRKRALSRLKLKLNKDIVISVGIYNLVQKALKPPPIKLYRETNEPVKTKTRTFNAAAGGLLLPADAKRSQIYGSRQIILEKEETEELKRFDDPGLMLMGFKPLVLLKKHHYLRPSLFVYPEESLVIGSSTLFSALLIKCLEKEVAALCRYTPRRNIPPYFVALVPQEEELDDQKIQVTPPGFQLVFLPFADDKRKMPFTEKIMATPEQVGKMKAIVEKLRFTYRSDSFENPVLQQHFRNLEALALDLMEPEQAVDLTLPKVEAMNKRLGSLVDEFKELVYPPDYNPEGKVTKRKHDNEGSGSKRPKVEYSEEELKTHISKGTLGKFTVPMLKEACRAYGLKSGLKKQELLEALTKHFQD
Chain of Ku70-5A/Ku80 heterodimer (P13010 whole entry, stated change not applied, chain 2 of 2): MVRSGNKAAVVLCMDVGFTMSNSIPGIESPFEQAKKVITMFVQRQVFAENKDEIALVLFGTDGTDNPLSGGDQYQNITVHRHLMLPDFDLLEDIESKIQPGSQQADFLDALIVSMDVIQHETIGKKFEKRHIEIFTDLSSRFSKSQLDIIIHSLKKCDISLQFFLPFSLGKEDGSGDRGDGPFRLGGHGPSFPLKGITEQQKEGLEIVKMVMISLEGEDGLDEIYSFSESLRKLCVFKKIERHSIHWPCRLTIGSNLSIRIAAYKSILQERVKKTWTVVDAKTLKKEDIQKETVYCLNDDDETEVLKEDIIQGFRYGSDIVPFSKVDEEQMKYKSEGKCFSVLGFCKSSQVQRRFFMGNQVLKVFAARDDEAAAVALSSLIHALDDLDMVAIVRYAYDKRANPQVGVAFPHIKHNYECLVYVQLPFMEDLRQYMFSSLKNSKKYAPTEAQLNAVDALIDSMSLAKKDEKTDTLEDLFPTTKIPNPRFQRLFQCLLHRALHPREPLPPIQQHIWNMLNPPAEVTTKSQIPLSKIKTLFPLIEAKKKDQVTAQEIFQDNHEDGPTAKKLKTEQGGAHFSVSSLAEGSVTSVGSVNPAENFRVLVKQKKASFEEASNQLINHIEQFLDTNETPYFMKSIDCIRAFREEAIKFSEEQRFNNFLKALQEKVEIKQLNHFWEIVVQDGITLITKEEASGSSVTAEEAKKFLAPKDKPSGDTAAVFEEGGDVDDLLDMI
Chain of Ku70/Ku80 heterodimer, wild-type (P12956 whole entry, chain 1 of 2): as the sequence (P12956 whole entry T305A/S306A/T307A/S314A/T316A, chain 1 of 2) above, with A305T, A306S, A307T, A314S, A316T counted along it
Chain of Ku70/Ku80 heterodimer, wild-type (P13010 whole entry, chain 2 of 2): as the sequence (P13010 whole entry, stated change not applied, chain 2 of 2) above

B1: biotin-labeled forked 22-mer dsDNA (dsDNA)
DNA 1: CGCGCCCAGCTTTCCCAGCTAATAAACTAAAAACTCCTAAGG
DNA 2: CCTTAGGAGTTTTTAGTTTATTGGGCGCG
B1: the binding result (with Ku70-5A/Ku80 heterodimer; in series [1]) was “binds” each time.
